Results reported in article PMC11173052, “The Development of Robust Antibodies to Sarcospan, a Dystrophin- and Integrin-Associated Protein, for Basic and Translational Research” (International Journal of Molecular Sciences, 2024).

B1: mouse sarcospan (mSSPN) (natural protein, UniProt Q62147 1-216, looked up)
chain: MGRKPSPRAQELPEEEARTCCGCRFPLLLALLQLALGIAVTVLGFLMASISPSLLVRDTPFWAGSIVCVVAYLGLFMLCVSYQVDERTCVQFSMKVFYFLLSALGLMVCMLAVAFAAHHYSLLAQFTCETSLDSCQCKLPSSEPLSRAFVYRDVTDCTSVTGTFKLFLIIQMVLNLVCGLVCLLACFVMWKHRYQVFYVGVGLRSLMASDGQLPKA
notes: sarcospan, mouse, GenBank U02487; 25-kDa protein with four transmembrane domains; seen as monomer and as a dimer band on reducing SDS-PAGE of immunoprecipitates; also called mouse SSPN; murine SSPN; source: endogenous (wild type) or transgenic overexpression (mSSPN-TG, Ln28), mouse quadriceps muscle lysate
B2: human sarcospan (hSSPN) (natural protein, UniProt Q14714 1-243, looked up)
chain: MGKNKQPRGQQRQGGPPAADAAGPDDMEPKKGTGAPKECGEEEPRTCCGCRFPLLLALLQLALGIAVTVVGFLMASISSSLLVRDTPFWAGIIVCLVAYLGLFMLCVSYQVDERTCIQFSMKLLYFLLSALGLTVCVLAVAFAAHHYSQLTQFTCETTLDSCQCKLPSSEPLSRTFVYRDVTDCTSVTGTFKLFLLIQMILNLVCGLVCLLACFVMWKHRYQVFYVGVRICSLTASEGPQQKI
notes: sarcospan, human, GenBank AF016028; hSSPN-TG muscle also holds endogenous mouse SSPN; also called human SSPN; source: transgenic overexpression in mouse skeletal muscle (hSSPN-TG, Ln3), quadriceps muscle lysate

Target: the molecule itself
Assay: oligomer bands on immunoblot of immunoprecipitated protein (reducing SDS-PAGE); quadriceps lysates (50 mM Tris, 150 mM NaCl, 1% NP-40, pH 7.4) of hSSPN-TG, mSSPN-TG, WT and SSPN-null mice immunoprecipitated with anti-SSPN monoclonal antibodies on protein A/G PLUS-agarose; eluates resolved by SDS-PAGE under reducing conditions and blotted with E2 or 10B8

Row | Protein | stoichiometry N
1 | B1 | 2
2 | B2 | 2
